Reference: patent US20220363752A1 (VERSEAU THERAPEUTICS, published 2022)
Primed or numbered codes have the meaning given here. Biotin′ = not defined here

T1: LRRC25(96-115) biotin peptide (human, not fully specified; N-terminal acetyl; C-terminal GGK-Biotin; native Cys changed to Ser)
T1 construct: also called Biotin LRRC25 (96-115) peptide
T1 peptide: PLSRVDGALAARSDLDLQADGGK

T2: LRRC25(141-159) biotin peptide (human, not fully specified; N-terminal acetyl; C-terminal GGK-Biotin; native Cys changed to Ser)
T2 peptide: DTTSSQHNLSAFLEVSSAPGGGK

T3: LRRC25(150-165) biotin peptide (human)
T3 peptide: Ac-SAFLEVSSAPGLASATGG-{Biotin′}

T4: LRRC25(21-40) biotin peptide (human, not fully specified; N-terminal NH2; C-terminal GGK-Biotin; native Cys changed to Ser)
T4 peptide: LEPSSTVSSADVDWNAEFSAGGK

T5: LRRC25(111-130) biotin peptide (human, not fully specified; N-terminal acetyl; C-terminal GGK-Biotin; native Cys changed to Ser)
T5 peptide: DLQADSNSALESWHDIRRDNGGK

T6: LRRC25(126-145) biotin peptide (human, not fully specified; N-terminal acetyl; C-terminal GGK-Biotin; native Cys changed to Ser)
T6 peptide: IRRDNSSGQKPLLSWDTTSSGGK

T7: LRRC25(51-69) biotin peptide (human, not fully specified; N-terminal acetyl; C-terminal GGK-Biotin)
T7 peptide: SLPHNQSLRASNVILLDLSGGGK

T8: LRRC25(81-100) biotin peptide (human, not fully specified; N-terminal acetyl; C-terminal GGK-Biotin)
T8 peptide: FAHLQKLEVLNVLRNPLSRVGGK

T9: LRRC25(66-85) biotin peptide (human, not fully specified; N-terminal acetyl; C-terminal GGK-Biotin)
T9 peptide: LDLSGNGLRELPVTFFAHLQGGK

T10: LRRC25(36-55) biotin peptide (human, not fully specified; N-terminal NH2; C-terminal GGK-Biotin; native Cys changed to Ser)
T10 peptide: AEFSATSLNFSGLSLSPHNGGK


How the values were obtained:
[1] = molecular target: T11, biotinylated human LRRC25-His protein (human, UniProt Q8N386 21-165, biotinylated (sites not given)); experiment: ELISA, 20 nM antibody, biotinylated antigen on streptavidin plate
T11 construct: also called Biotin LRRC25-His; biotinylated LRRC25 protein
T11 sequence (Q8N386 other isoform, or with tags, fused parts or gaps): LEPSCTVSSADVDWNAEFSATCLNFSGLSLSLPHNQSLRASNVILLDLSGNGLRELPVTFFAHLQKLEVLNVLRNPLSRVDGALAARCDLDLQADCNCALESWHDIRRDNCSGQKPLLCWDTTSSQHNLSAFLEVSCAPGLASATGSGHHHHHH
Outline: (§1)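 Plate-bound streptavidin captured biotinylated 16- to 20-mer LRRC25 ECD overlapping peptides (2 ug/mL), with biotinylated human LRRC25-His as positive control. Chimeric anti-LRRC25 antibodies at 20 nM, 45 min at 37° C in duplicate; detection by HRP anti-human IgG and TMB at A450 nm.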

[2] = molecular target: T1, LRRC25(96-115) biotin peptide; experiment: as above
Outline: as §1

[3] = molecular target: T12, His-tagged human LRRC25 extracellular domain protein, human LRRC25-His (human, UniProt Q8N386 21-165); experiment: ELISA, plate-immobilized antigen
T12 construct: The entry holds the extracellular domain, a GSG linker and the His tag; also called LRRC25(ECD)-HIS
T12 sequence (Q8N386 other isoform, or with tags, fused parts or gaps): as above
Outline: (§2)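 Wells coated overnight at 4 °C with 1 ug/mL antigen in PBS pH 7.4. Antibodies titrated from 500 nM in 3-fold steps in 1% skimmed milk/PBS, 1 h at room temperature, then HRP anti-human IgG; TMB read at A450 nm and EC50 taken from binding curves.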

[4] = molecular target: T13, His-tagged cynomolgus monkey LRRC25 extracellular domain protein, cyno LRRC25-His (cynomolgus monkey); experiment: ELISA, plate-immobilized antigen
T13 construct: The entry holds the extracellular domain, a GSG linker and the His tag
T13 sequence (chain, as listed by the source limits assumed): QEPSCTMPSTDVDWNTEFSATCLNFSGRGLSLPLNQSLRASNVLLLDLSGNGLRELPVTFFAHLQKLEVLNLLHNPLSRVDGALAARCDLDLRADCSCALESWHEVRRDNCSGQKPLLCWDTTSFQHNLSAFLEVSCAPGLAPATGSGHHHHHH
Outline: as §2

[5] = molecular target: T12, His-tagged human LRRC25 extracellular …; experiment: ELISA, antibody titrated on plate-immobilized Human LRRC25(ECD)-His, A450nm against -log [IgG] (M), left panel
Protocol: (§3) To establish the relative binding strengths of anti-LRRC25 antibodies against human LRRC25, and their cross-reactivity with cynomolgus monkey LRRC25, antibody binding curve analyses were performed and EC50 values against plate-immobilized recombinant human and cyno LRRC25 proteins were determined.
(§4) A typical ELISA was performed by coating overnight in PBS, pH 7.4, at 4° C. in high binding microtiter wells with 1 ug/mL/100 ul per well of human LRRC25-His or cyno LRRC25-His. An anti-human LRRC25 antibody (2A3, LS Bio, LS-C174039-100) and anti-HIS-HRP (Miltenyi Biotec; 130-092-783) served as coating controls for the human and cyno LRRC25 proteins, respectively. […] Anti-LRRC25 antibodies were added (100 ul per well) at 500 nM and serially diluted 3-fold in assay buffer (1% skimmed milk in PBS, pH 7.4). The plate was incubated with gentle agitation for 1 h at room temperature. The plate was washed 3× and HRP-conjugated secondary antibody in assay buffer added [100 ul per well; goat anti-human IgG (Jackson Immunoresearch, cat #715-035-150)], and the plate was incubated as before. Antibody bound to plate-immobilized LRRC25(ECD)-HIS was determined at A450 nm using HRP substrate (3,3′,5,5′-tetramethylbenzidine (TMB); eBioscience; 00-4201-56); 100 μl/well).

[6] = molecular target: T2, LRRC25(141-159) biotin peptide; experiment: peptide ELISA
Outline: as §1

[7] = molecular target: T3, LRRC25(150-165) biotin peptide; experiment: peptide ELISA
Outline: as §1

[8] = molecular target: T4, LRRC25(21-40) biotin peptide; experiment: peptide ELISA
Outline: as §1

[9] = molecular target: T5, LRRC25(111-130) biotin peptide; experiment: peptide ELISA
Outline: as §1

[10] = molecular target: T6, LRRC25(126-145) biotin peptide; experiment: peptide ELISA
Outline: as §1

[11] = molecular target: T7, LRRC25(51-69) biotin peptide; experiment: peptide ELISA
Outline: as §1

[12] = molecular target: T8, LRRC25(81-100) biotin peptide; experiment: peptide ELISA
Outline: as §1

[13] = molecular target: T9, LRRC25(66-85) biotin peptide; experiment: peptide ELISA
Outline: as §1

[14] = molecular target: T10, LRRC25(36-55) biotin peptide; experiment: peptide ELISA
Outline: as §1

[15] = molecular target: T13, His-tagged cynomolgus monkey LRRC25 …; experiment: ELISA, antibody titrated on plate-immobilized Cyno LRRC25(ECD)-His, A450nm against -log [IgG] (M), right panel
Protocol: as §3, §4

[16] = molecular target: T1, LRRC25(96-115) biotin peptide; experiment: peptide ELISA
Outline: as §1

Binder | absorbance (A450) [1] [A450] | absorbance (A450) [2] [A450] | EC50 [3] [nM] | EC50 [4] [nM] | EC50 (read off the curve) [5] [nM] | binding result [6] | binding result [7] | binding result [8] | binding result [9] | binding result [10] | binding result [11] | binding result [12] | binding result [13] | binding result [14] | binding result [15] | binding result [16]
anti-LRRC25 chimeric antibody 1E01 (antibody, human IgG4, V domains shown, also called mAb 1E01) VH: DVQLVESGGGLVKPGGSLKLSCAASGFTFSNYAMSWVRQTPEKRLEWVASISRGGNTYYPDSVKGRFTISRDNARNILYLQMSSLRSEDTAIYYCTRGNYGSSLFAYWGQGTLVTVSA VL: DIVLTQSPASLTVSLGQRATISCRASKSVSTSGYSYMHWYQQKPGQPPKLLIYLASNLESGVPARFSGSGSRTDFTLTIDPVEADDAATYYCQQNNEDPWTFGGGTKLEIKR | 1.7 | 2.56 | 1.3 | 83.2 | ~1 | no binding (tested: 20 nM) | no binding (tested: 20 nM) | no binding (tested: 20 nM) | no binding (tested: 20 nM) | no binding (tested: 20 nM) | no binding (tested: 20 nM) | no binding (tested: 20 nM) | no binding (tested: 20 nM) | no binding (tested: 20 nM) | – | –
anti-LRRC25 chimeric antibody 3A08 (antibody, human IgG4, also called mAb 3A08) heavy: DVKLVESGGGLVKPGGSLKLSCAVSGFTLSSYAMSWVRQTPEKRLEWVASISRGGSTYYPDSVKGRFTISRDNGRNILNLQMSSLRSEDTAIYYCARGGGSTMITSLFAYWGQGTLVTVSAASTKGPSVFPLAPCSRSTSESTAALGCLVKDYFPEPVTVSWNSGALTSGVHTFPAVLQSSGLYSLSSVVTVPSSSLGTKTYTCNVDHKPSNTKVDKRVESKYGPPCPPCPAPEFLGGPSVFLFPPKPKDTLMISRTPEVTCVVVDVSQEDPEVQFNWYVDGVEVHNAKTKPREEQFNSTYRWSVLTVLHQDWLNGKEYKCKVSNKGLPSSIEKTISKAKGQPREPQVYTLPPSQEEMTKNQVSLTCLVKGFYPSDIAVEWESNGQPENNYKTTPPVLDSDGSFFLYSRLTVDKSRWQEGNVFSCSVMHEALHNHYTQKSLSLSLGK light: DIVMTQAAFSNPVTLGTSASISCRSSKSLLHSNGITYLYWYLQKPGQSPQLLIYQMSNLASGVPDRFSSSGSGTDFTLRISRVEAEDVGVYYCAQNLELPFTFGSGTKLEIKRTVAAPSVFIFPPSDEQLKSGTASVVCLLNNFYPREAKVQWKVDNALQSGNSQESVTEQDSKDSTYSLSSTLTLSKADYEKHKVYACEVTHQGLSSPVTKSFNRGEC | 0.305 | 0.088 | 51.1 | – | – | no binding (tested: 20 nM) | no binding (tested: 20 nM) | no binding (tested: 20 nM) | no binding (tested: 20 nM) | no binding (tested: 20 nM) | no binding (tested: 20 nM) | no binding (tested: 20 nM) | no binding (tested: 20 nM) | no binding (tested: 20 nM) | no binding (tested: about 5e-7 M (-log [IgG] about 6.3)) | no binding (tested: 20 nM)
anti-LRRC25 chimeric antibody 2C07 (antibody, human IgG4, V domains shown) VH: QITLKESGPGILQPSQTLSLTCSFSGFSLTTSGMGVSWIRQPSGKGLEWLAHIYWDDDKRYNPSLRSRLTISKDTSSNQVVLKLTNVDTADTATYYCARRARDYYNSGHWYFDVWGAGTTVTVSS VL: DVVMTQTPKSMSMSVGERVTLSCKASENVGTYVSWYQQKPDQSPKLLIFGASNRYTGVPDRFTGSGSATDFTLTISSVQAEDLADYHCGQTYSFPFTFGSGTKLEIKR | 2.6 | 0.054 | 0.39 | 0.65 | – | no binding (tested: 20 nM) | no binding (tested: 20 nM) | no binding (tested: 20 nM) | no binding (tested: 20 nM) | no binding (tested: 20 nM) | no binding (tested: 20 nM) | no binding (tested: 20 nM) | no binding (tested: 20 nM) | no binding (tested: 20 nM) | – | no binding (tested: 20 nM)
anti-LRRC25 chimeric antibody 2C08 (antibody, human IgG4, V domains shown) VH: QVTLKESGPGILQPSQTLSLTCSFSGFSLSTSGMGVSWIRQPSGKGLEWLAHIYWDDDKRYNPSLKSRLTLSKDTSSNQVFLKITSVDTADTATYYCARRPRDYYGGGHWYFDVWGAGTTVTVSS VL: DIVMTQSPKSMSMSVGERVTLTCKASENVGTYVSWYQQKAEQSPKLLIYGASNRYTGVPDRFTGSGSATDFTLTISNVQTEDLADYHCGQSYSYPFTFGSGTKLEIKR | 2.39 | 0.049 | 2 | 1.4 | – | no binding (tested: 20 nM) | no binding (tested: 20 nM) | no binding (tested: 20 nM) | no binding (tested: 20 nM) | no binding (tested: 20 nM) | no binding (tested: 20 nM) | no binding (tested: 20 nM) | no binding (tested: 20 nM) | no binding (tested: 20 nM) | – | no binding (tested: 20 nM)
anti-LRRC25 chimeric antibody 3C07 (antibody, human IgG4, V domains shown) VH: EVKLDESGGGLVKPGGSLKLSCAASGFTFSRYAMSWVRQTPEKRLEWVASISRGGSTYYPDSVKGRFTISRDIARDILYLQMSSLRSEDTAMYYCARGNYGSSLFAYWGQGTLVTVSA VL: DIVMTQAAFSNPVTLGTSASISCRSSKSLLHSNGITYLYWYLQKPGQSPQLLIYQMSNLASGVPDRFSSSGSGTDFTLRISRVEAEDVGVYYCAQNLELPWTFGGGTKLEIKR | 0.714 | 0.134 | 16.1 | ~200 | – | no binding (tested: 20 nM) | no binding (tested: 20 nM) | no binding (tested: 20 nM) | no binding (tested: 20 nM) | no binding (tested: 20 nM) | no binding (tested: 20 nM) | no binding (tested: 20 nM) | no binding (tested: 20 nM) | no binding (tested: 20 nM) | – | no binding (tested: 20 nM)
